Experimental data from patent US20200399344A1 (SHATTUCK LABS, published 2020).
“And” between values parts separate entries of the source, which are not always exact repeats. Identical values can stand only once.

T1: recombinant mCD47 (mCD47-His) protein (mouse, UniProt Q61735 19-140, limits assumed)
T1 construct: not shown: His tag
T1 sequence (looked up): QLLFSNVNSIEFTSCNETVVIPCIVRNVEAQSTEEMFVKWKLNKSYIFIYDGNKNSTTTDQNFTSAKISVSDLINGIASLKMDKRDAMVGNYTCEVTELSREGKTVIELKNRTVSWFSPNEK

T2: recombinant human 2B4-Fc fusion protein (rh2B4-Fc) (human, UniProt Q9BZW8-2 22-221, limits assumed)
T2 construct: not shown: Fc
T2 sequence (looked up): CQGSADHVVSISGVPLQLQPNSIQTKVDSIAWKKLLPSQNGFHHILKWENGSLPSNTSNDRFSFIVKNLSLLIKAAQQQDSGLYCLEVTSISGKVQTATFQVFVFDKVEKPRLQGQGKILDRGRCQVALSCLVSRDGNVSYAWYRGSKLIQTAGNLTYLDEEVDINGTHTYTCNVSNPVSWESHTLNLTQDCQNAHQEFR

T3: recombinant human CD2-Fc fusion protein (rhCD2-Fc) (human, UniProt P06729 25-209)
T3 construct: not shown: Fc
T3 sequence (looked up): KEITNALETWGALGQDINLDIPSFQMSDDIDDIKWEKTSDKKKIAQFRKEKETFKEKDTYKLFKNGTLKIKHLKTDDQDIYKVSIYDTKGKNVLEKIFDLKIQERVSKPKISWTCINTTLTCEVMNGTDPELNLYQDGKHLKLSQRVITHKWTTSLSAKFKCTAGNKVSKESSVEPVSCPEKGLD

B1: mouse CD86-Fc-NKG2A chimeric protein (Fc fusion)
chain: VSVETQAYFNGTAYLPCPFTKAQNISLSELVVFWQDQQKLVLYEHYLGTEKLDSVNAKYLGRTSFDRNNWTLRLHNVQIKDMGSYDCFIQKKPPTGSIILQQTLTELSVIANFSEPEIKLAQNVTGNSGINLTCTSKQGHPKPKKMYFLITNSTNEYGDNMQISQDNVTELFSISNSLSLSFPDGVWHMTVVCVLETESMKISSKPLNFTQEFPSPQTYWKVPRDCGCKPCICTVPEVSSVFIFPPKPKDVLTITLTPKVTCVVVDISKDDPEVQFSWFVDDVEVHTAQTQPREEQFNSTFRSVSELPIMHQDWLNGKEFKCRVNSAAFPAPIEKTISKTKGRPKAPQVYTIPPPKEQMAKDKVSLTCMITDFFPEDITVEWQWNGQPAENYKNTQPIMDTDGSYFVYSKLNVQKSNWEAGNTFTCSVLHEGLHNHHTEKSLSHSPGIIEGRMDTPYTEAKAQINSSMTRTHRDINYTLSSAQPCPHCPKEWISYSHNCYFIGMERKSWNDSLVSCISKNCSLLYIDSEEEQDFLQSLSLISWTGILRKGRGQPWVWKEDSIFKPKIAEILHDECNCAMMSASGLTADNCTTLHPYLCKCKFPI
notes: Batch 1 and Batch 2 were tested; also called mCD86-Fc-NKG2A
B2: human CD86-Fc-NKG2A chimeric protein (Fc fusion)
chain: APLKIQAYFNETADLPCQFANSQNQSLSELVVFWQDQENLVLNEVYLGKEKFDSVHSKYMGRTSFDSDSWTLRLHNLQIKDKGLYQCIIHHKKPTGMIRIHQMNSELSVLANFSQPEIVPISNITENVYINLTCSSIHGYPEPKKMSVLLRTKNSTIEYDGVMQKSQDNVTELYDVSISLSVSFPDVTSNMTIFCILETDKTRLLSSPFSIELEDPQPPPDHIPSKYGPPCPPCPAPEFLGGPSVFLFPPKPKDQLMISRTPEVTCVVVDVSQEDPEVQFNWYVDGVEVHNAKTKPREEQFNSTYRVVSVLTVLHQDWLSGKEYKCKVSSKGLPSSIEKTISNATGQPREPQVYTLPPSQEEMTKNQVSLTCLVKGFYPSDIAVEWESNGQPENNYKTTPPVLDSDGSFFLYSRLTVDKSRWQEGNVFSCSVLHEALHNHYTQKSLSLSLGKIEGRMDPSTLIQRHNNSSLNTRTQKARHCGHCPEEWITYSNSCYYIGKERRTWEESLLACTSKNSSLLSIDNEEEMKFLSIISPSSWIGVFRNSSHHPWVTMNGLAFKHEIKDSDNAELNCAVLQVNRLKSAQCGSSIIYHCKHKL
notes: also called hCD86-Fc-NKG2A

Tests used:
[1] = biological target: T4, PD-L1, plate-bound (Example 8) (Homo sapiens (Human), UniProt Q9NZQ7 19-238); assay: Dual ELISA (capturing with PDL1): coat hPDL1-Fc (R&D), detect hHLA-E (Novus), HRP Anti-6X His; curve low, about 0.45 at the highest concentration
T4 construct: not shown: The Fc carrier of the vendor's hPD-L1-Fc (R&D) and any linker
T4 sequence (Q9NZQ7 19-238 limits assumed): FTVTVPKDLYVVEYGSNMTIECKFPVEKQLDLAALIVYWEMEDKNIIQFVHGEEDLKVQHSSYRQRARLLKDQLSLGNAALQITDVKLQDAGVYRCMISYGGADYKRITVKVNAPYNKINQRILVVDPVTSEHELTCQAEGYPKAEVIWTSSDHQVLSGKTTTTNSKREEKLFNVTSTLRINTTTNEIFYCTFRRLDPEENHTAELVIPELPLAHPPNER

mCTLA-4, plate-bound [2] = biological target: T5, mCTLA-4, plate-bound (mouse, UniProt P09793 36-162, limits assumed); assay: ELISA (single-sided): coat mCTLA-4 (R&D), detect Anti-mFc-HRP (Jax); curve near the baseline, about 0.25 only at the highest concentration
mCTLA-4, plate-bound [3] = biological target: T5, mCTLA-4, plate-bound; assay: ELISA (single-sided): coat mCTLA-4 (R&D), detect Anti-mFc-HRP (Jax)
[4] = biological target: T6, HLA class I histocompatibility antigen, alpha chain E (HLA-E), plate-bound recombinant protein (human, UniProt P13747 22-305, limits assumed); assay: ELISA (single-sided): coat hHLA-E (Novus), detect Anti-mFc-HRP (Jax)
T6 construct: no tag named there; also called recombinant HLA-E protein
T6 sequence (P13747 22-305 limits assumed): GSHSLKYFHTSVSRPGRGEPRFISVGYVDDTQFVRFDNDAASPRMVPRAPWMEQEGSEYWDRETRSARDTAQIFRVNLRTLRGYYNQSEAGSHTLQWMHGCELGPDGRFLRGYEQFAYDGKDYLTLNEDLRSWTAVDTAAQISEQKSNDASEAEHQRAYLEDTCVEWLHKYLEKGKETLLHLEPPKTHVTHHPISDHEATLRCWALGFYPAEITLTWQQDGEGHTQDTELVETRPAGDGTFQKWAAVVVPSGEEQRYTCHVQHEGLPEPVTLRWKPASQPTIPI

goat anti-mCD48 antibody = biological target: T7, goat anti-mCD48 antibody; assay: Dual binding ELISA: coat mHLA-E (Novus) as printed, detect Anti-mCD48 (R&D), HRP Anti-Goat HRP; flat curve
T7 construct: also called anti-CD48; Anti-CD48

[5] = biological target: T1, recombinant mCD47 (mCD47-His) protein; assay: dual/PK ELISA; coat αNKG2a (1:10k), mCD86-fc-NKG2a titrated, detection mCD47-His (5ug/ml), His-HRP
Protocol: Increasing amounts of the mSIRPα-Fc-NKG2A chimeric protein was added and detected using mCD47-His. The CD86-Fc-NKG2A chimeric protein was used as a negative control.
To understand whether the mSIRPα-Fc-NKG2A chimeric protein can binds simultaneously to both anti-NKG2a and CD47, the following ELISA experiment was carried out. Briefly, and anti-NKG2a antibody was coated on plates. Increasing amounts of the mSIRPα-Fc-NKG2A and mCD48-Fc-NKG2A chimeric proteins were added to the plates for capture by the anti-NKG2a antibody. Further, recombinant mCD47 (mCD47-His) protein was added to the plate for capture by mSIRPα-Fc-NKG2A chimeric protein. The binding of the mCD47-His protein was detected using an anti-His HRP antibody.

[6] = biological target: T8, recombinant human CD28-Fc (rhCD28-Fc) protein (human, UniProt P10747 19-152); assay: dual ELISA; coat rhCD28-Fc, hCD86-Fc-NKG2a titrated, detection HLA-E-His, Anti-His-6x-HRP; the signal needs both bindings
T8 construct: not shown: Fc
T8 sequence (P10747 19-152 limits assumed): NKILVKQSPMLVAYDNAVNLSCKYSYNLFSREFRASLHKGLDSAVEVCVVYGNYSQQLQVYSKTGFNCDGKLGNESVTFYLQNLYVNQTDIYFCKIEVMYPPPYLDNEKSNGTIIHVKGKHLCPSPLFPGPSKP
Protocol: To understand whether the hCD86-Fc-NKG2A chimeric protein can binds simultaneously to both hCD28 and HLA-E, the following ELISA experiment was carried out. Briefly, and recombinant hCD28 (rhCD28-Fc) protein was coated on plates. Increasing amounts of the hCD86-Fc-NKG2A chimeric protein was added to the plates for capture by the rhCD28-Fc protein. Further, recombinant HLA-E (HLA-E-His) protein was added to the plate for capture by hCD86-Fc-NKG2A chimeric protein. The binding of the HLA-E-His protein was detected using an anti-His 6× HRP antibody.

[7] = biological target: T2, recombinant human 2B4-Fc fusion protein …; assay: dual ELISA; coat rh2B4-Fc, hCD86-Fc-NKG2A titrated, detection HLA-E-His, Anti 6x-His-HRP
Protocol: (§1) (i) recombinant human 2B4-Fc fusion protein (rh2B4-Fc) was coated on plates. Increasing amounts of the hCD48-Fc-NKG2A or hCD86-Fc-NKG2A chimeric proteins were added and detected using HLA-E-His. The hCD86-Fc-NKG2A chimeric protein was used as a negative control (Negative control #1). […] (ii) recombinant human CD2-Fc fusion protein (rhCD2-Fc) was coated on plates. Increasing amounts of the hCD58-Fc-NKG2A or hCD86-Fc-NKG2A chimeric proteins were added and detected using HLA-E-His. The hCD86-Fc-NKG2A chimeric protein was used as a negative control (Negative control #2).
(§2) To understand whether the hCD48-Fc-NKG2A chimeric protein can bind simultaneously to both 2B4 and HLA-E, the following ELISA experiment was carried out. Briefly, and recombinant 2B4 (rh2B4-Fc) protein was coated on plates. Increasing amounts of the hCD48-Fc-NKG2A chimeric protein was added to the plates for capture by the recombinant human 2B4-Fc (rh2B4-Fc) protein. Further, recombinant HLA-E (HLA-E-His) protein was added to the plate for capture by hCD48-Fc-NKG2A chimeric proteins. The binding of the HLA-E-His protein was detected using an anti-His 6× HRP antibody.

[8] = biological target: T3, recombinant human CD2-Fc fusion protein …; assay: dual ELISA; coat rhCD2-Fc, hCD86-Fc-NKG2A titrated, detection HLA-E-His, Anti 6x-His-HRP
Protocol: as §1
as §2, with “hCD58-Fc-NKG2A” for “hCD48-Fc-NKG2A”, “CD2” for “2B4”, “CD2 (rhCD2-Fc)” for “2B4 (rh2B4-Fc)”, “CD2-Fc (rhCD2-Fc)” for “2B4-Fc (rh2B4-Fc)”

[9] = biological target: T9, anti-human IgG antibody (plate-bound); assay: ELISA (single sided Fc): coat Anti-Human IgG (H+L) Jax# 109-005-088, detection HRP Goat anti-human FCgamma
T9 construct: also called anti-human Fc antibody
Protocol: Anti-human IgG was coated on plates and increasing amounts of the indicated chimeric proteins were added to the plates. hIgG was used as a positive control, and mCD80-Fc-NKG2A was used as a negative control. The binding was detected using an anti-human Fcgamma HRP.
To understand whether the Fc linkers from the native chimeric proteins can be accessed by anti-human antibodies, ELISA-based assays were performed. For these assays, an anti-human IgG antibody was coated on plates and increasing amounts of the hCD86-Fc-NKG2A and hTGFBR2-Fc-NKG2A, mCD80-Fc-NKG2a chimeric proteins, and a human IgG antibody were added to the plates for capture by the plate-bound anti-human antibody. The human IgG antibody was used as a positive control and to generate a standard curve. The mCD80-Fc-NKG2a chimeric protein was included as a negative control as containing a non-human Fc domain. The protein bound to the anti-human IgG antibody was detected using an anti-human Fcgamma HRP.

[10] = biological target: T10, recombinant human CD28-His (rhCD28-His) (human, UniProt P10747 19-152); assay: ELISA: coat rhCD28-His (Acro), detection Anti-hFc-HRP
T10 construct: also called Human CD28-His protein; recombinant CD28 protein; not shown: His tag
T10 sequence (P10747 19-152 limits assumed): as above
Protocol: To understand whether the CD80 and CD86 parts of the hCD80-Fc-NKG2A and hCD86-Fc-NKG2A chimeric protein can bind CD28, ELISA-based assays were performed. Briefly, recombinant CD28 protein was coated on plates and increasing amounts of the hCD80-Fc-NKG2A, hCD86-Fc-NKG2A, and mCD48-Fc-NKG2A chimeric proteins, and recombinant human CD86-Fc (rhCD86-Fc) protein was added to the plates for capture by the plate-bound recombinant CD28 protein. The mCD48-Fc-NKG2A chimeric protein, and recombinant human CDrhCD86-Fc protein was used as negative and positive controls, respectively. The chimeric proteins bound to the recombinant CD28 protein was detected using an anti-human Fc HRP.

[11] = biological target: T11, hCD28 expressed on CHO-K1/hCD28 cells (human, UniProt P10747 19-220); assay: flow cytometry on CHO-K1/hCD28 cells (hCD28-C1), APC-A, dose series (doses not given)
T11 construct: whole, on cells; also called CHO-K1/CD28
T11 sequence (P10747 19-220): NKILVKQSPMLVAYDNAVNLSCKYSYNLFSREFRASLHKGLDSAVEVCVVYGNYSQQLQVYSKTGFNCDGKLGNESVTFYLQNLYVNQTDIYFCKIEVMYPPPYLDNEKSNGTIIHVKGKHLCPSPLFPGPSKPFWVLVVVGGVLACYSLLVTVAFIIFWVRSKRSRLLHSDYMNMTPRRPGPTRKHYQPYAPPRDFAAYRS
Protocol: To determine whether the hCD86-Fc-NKG2A chimeric protein can specifically bind the CHO-K1/hCD28 cells, a flow-cytometry-based assay was carried out. […] The dose dependent shifts in the flow cytometry profiles illustrate a dose-dependent binding of the hCD86-Fc-NKG2A chimeric protein to hCD28 expressed by the CHO-K1/hCD28 cells. A quantitation of binding confirmed a dose-dependent binding (FIG. 65).

| Binder | EC50 [1] [µM] | EC50 (mCTLA-4, plate-bound [2]) [µM] | EC50 (mCTLA-4, plate-bound [3]) [µM] | EC50 [4] | EC50 (goat anti-mCD48 antibody) [µM] | binding result [5] | binding result [6] | binding result [7] | binding result [8] | EC50 (read off the curve) [9] [µg/mL] | binding result [10] | binding result [11] |
| --- | --- | --- | --- | --- | --- | --- | --- | --- | --- | --- | --- | --- |
| B1 | 1.65 | ~4050 | 0.000658 | 0.0661 µM and 0.0832 µM | ~0.00555 | no binding (tested: about log 1.8 ug/ml (roughly 60 ug/ml)) |  |  |  |  |  |  |
| B2 |  |  |  |  |  |  | binds | no binding (tested: about log 2.7 ug/ml (roughly 500 ug/ml)) | no binding (tested: about log 2.7 ug/ml (roughly 500 ug/ml)) | ~1 | binds | binds |
